Results reported in patent publication EP3964526A1 (Novartis AG, dated 2022).
Changes are numbered by the printed parent chain.

B1: 534-max (scFv)
chain: EIVMTQSPSTLSASVGDRVIITCQASQSINIWLSWYQQKPGKAPKLLIYKESTLASGVPSRFSGSGSGTEFTLTISSLQPDDFATYYCQNNYDSGNNGFPFGQGTKLTVLGGGGGSGGGGSGGGGSGGGGSEVQLVESGGGLVQPGGSLRLSCTASGFSLSYYYMSWVRQAPGKGLEWVGIIGPGDYTDYASWAKGRFTISKDTSKNTVYLQMNSLRAEDTAVYYCARGDDNSGWGEDIWGQGTLVTVSS
B2: EP6_min (scFv)
chain: EIVMTQSPSTLSASVGDRVIITCQASESIYSGLAWYQQKPGKAPKLLIYQASTLASGVPSRFSGSGSGAEFTLTISSLQPDDFATYYCQQGFGTSNVENPFGQGTKLTVLGGGGGSGGGGSGGGGSGGGGSEVQLVESGGGLVQPGGSLRLSCAASGFSLSRYGVSWVRQAPGKGLEWVSTIGEAGRAYYANWARSRFTISRDNSKNTLYLQMNSLRAEDTAVYYCAKGEVFNNGWGAFNIWGQGTLVTVSS
B3: EP6_max (scFv)
chain: B2 chain with A69T, E70D, T74A, A154T, A155V, S180G, F198S, N204T, L209V, K228R
B4: 509-max (scFv)
chain: EIVMTQSPSTLSASVGDRVIITCQASQNIRIWLSWYQQKPGKAPKLLIYKASTLESGVPSRFSGSGSGTEFTLTISSLQPDDFATYYCQNNAHYSTNGGTFGQGTKLTVLGGGGGSGGGGSGGGGSGGGGSEVQLVESGGGLVQPGGSLRLSCTASGFSLSSYYMCWVRQAPGKGLEWVGCLDYVGDTDYASWAKGRFTISKDASKNTVYLQMNSLRAEDTAVYYCARTDDSRGWGLNIWGQGTLVTVSS
B5: EP42_min (scFv)
chain: EIVMTQSPSTLSASVGDRVIITCQSTESVYKNNYLAWYQQKPGKAPKLLIYDASTLASGVPSRFSGSGSGAEFTLTISSLQPDDFATYYCAGYYRSGFGTANGSFGQGTKLTVLGGGGGSGGGGSGGGGSGGGGSEVQLVESGGGLVQPGGSLRLSCAASGFTFRNDAISWVRQAPGKGLEWVSYISDWGIKYYASWVKGRFTISRDNSKNTLYLQMNSLRAEDTAVYYCAKGAPGAGDNGIWGQGTLVTVSS
B6: EP1_max (scFv)
chain: EIVMTQSPSTLSASVGDRVIITCQSTESVYKNNYLAWYQQKPGKAPKLLIYDASTLASGVPSRFSGSGSGTEFTLTISSLQPDDFATYYCAGYYRSGSGTANGSFGQGTKLTVLGGGGGSGGGGSGGGGSGGGGSEVQLVESGGGSVQPGGSLRLSCTVSGIDLSNDAISWVRQAPGKGLEWVAYISDWSIRYYANWAQGRFTISKDTSKNTVYLQMNSLRAEDTATYYCARGAPGAGDNGIWGQGTTVTVSS
B7: EP42_max (scFv)
chain: B6 chain with S98F, S165R, A184S, S190G, R192K, N196S, A198V, Q199K
B8: 435-max (scFv)
chain: EIVMTQSPSTLSASVGDRVIITCQASQSIGSSLAWYQQKPGKAPKLLIYTAANLASGVPSRFSGSRSGAEFTLTISSLQPDDFATYYCQNFATSDTVTFGQGTKLTVLGGGGGSGGGGSGGGGSGGGGSEVQLVESGGGLVQPGGSLRLSCKASGFSLNTNYWMCWVRQAPGKGLEWVGCMYTGSYNRAYYASWAKGRFTSSKDTSKNTVYLQMNSLRAEDTAVYYCAKGSNWYSDLWGQGTLVTVSS
B9: 375-min (scFv)
chain: EIVMTQSPSTLSASVGDRVIITCQASENINIWLSWYQQKPGKAPKLLIYQASKLASGVPSRFSGSGSGAEFTLTISSLQPDDFATYYCQNNYSYNRYGAPFGQGTKLTVLGGGGGSGGGGSGGGGSGGGGSEVQLVESGGGLVQPGGSLRLSCAASGFSFTTTDYMCWVRQAPGKGLEWVSCILAGDGSTYYANWAKGRFTISRDNSKNTLYLQMNSLRAEDTAVYYCAKSDPASSWSFALWGQGTLVTVSS
B10: 375-max (scFv)
chain: B9 chain with A69T, E70Q, A154K, S181G, I202G, R204K, N206T, L211V, K230R
B11: 610-min (scFv)
chain: EIVMTQSPSTLSASVGDRVIITCQASQSISSWLSWYQQKPGKAPKLLIYQASTLASGVPSRFSGSGSGAEFTLTISSLQPDDFATYYCQNNYGFRSYGGAFGQGTKLTVLGGGGGSGGGGSGGGGSGGGGSEVQLVESGGGLVQPGGSLRLSCAASGIDFSGAYYMGWVRQAPGKGLEWVSYIDYDGDRYYASWAKGRFTISRDNSKNTLYLQMNSLRAEDTAVYYCAKSDYSSGWGTDIWGQGTLVTVSS
B12: 610-max (scFv)
chain: B11 chain with A69T, A154T, S181G, R203K, N205T, L210V, K229R
B13: EP15_min (scFv)
chain: EIVMTQSPSTLSASVGDRVIITCQASENIYTSLAWYQQKPGKAPKLLIYSASTLASGVPSRFSGSGSGAEFTLTISSLQPDDFATYYCQQGFATSNVENPFGQGTKLTVLGGGGGSGGGGSGGGGSGGGGSEVQLVESGGGLVQPGGSLRLSCAASGFTFSRYGVSWVRQAPGKGLEWVSAIGETGRAYYANWAKSRFTISRDNSKNTLYLQMNSLRAEDTAVYYCAKGEEFNNGWGAFNIWGQGTLVTVSS
B14: EP19_max (scFv)
chain: EIVMTQSPSTLSASVGDRVIITCQASDNIYRGLAWYQQKPGKAPKLLIYDASTLQSGVPSRFSGSGSGTQFTLTISSLQPDDFATYYCLGVYGYSSDDGAAFGQGTKLTVLGGGGGSGGGGSGGGGSGGGGSEVQLVESGGGLVQPGGSLRLSCTVSGFSLNSNEISWVRQAPGKGLEWVGYIGNGGMTHYASWAKGRFTISRDTSKNTVYLQMNSLRAEDTAVYYCASSVEYTDLYYLNIWGQGTLVTVSS
B15: EP43_min (scFv)
chain: EIVMTQSPSTLSASVGDRVIITCQASQSISDWLAWYQQKPGKAPKLLIYGASRLASGVPSRFSGSGSGAEFTLTISSLQPDDFATYYCQQGWSDSYVDNLFGQGTKLTVLGGGGGSGGGGSGGGGSGGGGSEVQLVESGGGLVQPGGSLRLSCAASGFSLSSGAMSWVRQAPGKGLEWVSVIISSGATYYASWAKGRFTISRDNSKNTLYLQMNSLRAEDTAVYYCAKGGPDDSNSMGTFDPWGQGTLVTVSS
B16: EP35_max (scFv)
chain: EIVMTQSPSTLSASVGDRVIITCQASQSISNLLAWYQQKPGKAPKLLIVAASKLASGVPSRFSGSGSGTEFTLTISSLQPDDFATYYCQQGWSHTNVDNTFGQGTKLTVLGGGGGSGGGGSGGGGSGGGGSEVQLVESGGGSVQPGGSLRLSCTASGFSFSVGYWICWVRQAPGKGLEWVACIDAGTSGGTYYATWAKGRFTISKDTSKNTVYLQMNSLRAEDTATYYCARGVSSNGYYFKLWGQGTTVTVSS
B17: EP43_max (scFv)
chain: EIVMTQSPSTLSASVGDRVIIKCQASQSISDWLAWYQQKPGKAPKLLIYGASRLASGFPSRFSGSGSGAEFTLTISGLEPADFATYYCQQGWSDSYVDNLFGQGTKLTVLGGGGGSGGGGSGGGGSGGGGSEVQLVESGGGLVQPGGSLRLSCTVSGFSLSSGAMSWVRQAPGKGLEWVGVIISSGATYYASWAKGRFTISKDTSKNTVYLQMNSLRAEDTAVYYCARGGPDDSNSMGTFDPWGQGTLVTVSS
B18: EP15_max (scFv)
chain: EIVMTQSPSTLSASVGDRVIITCQASENIYTSLAWYQQKPGKAPKLLIYSASTLASGVPSRFSGSGSGTEFTLTISSLQPDDFATYYCQQGFATSNVENPFGQGTKLTVLGGGGGSGGGGSGGGGSGGGGSEVQLVESGGGSVQPGGSLRLSCTVSGFSLSRYGVSWVRQAPGKGLEWVGAIGETGRAYYANWAKSRSTISRDTSKNTVYLQMNSLRAEDTATYYCARGEEFNNGWGAFNIWGQGTTVTVSS
B19: 511-min (scFv, V domains shown)
VH: EVQLVESGGGLVQPGGSLRLSCAASGFSLNTYYMNWVRQAPGKGLEWVSIIAPDDTTYYASWAKSRFTISRDNSKNTLYLQMNSLRAEDTAVYYCAKSGDTTAWGADIWGQGTLVTVSS
VL: EIVMTQSPSTLSASVGDRVIITCQASQSINIWCSWYQQKPGKAPKLLIYRASTLASGVPSRFSGSGSGAEFTLTISSLQPDDFATYYCQANYAYSAGYGAAFGQGTKLTVL
B20: EP34_max (scFv)
chain: EIVMTQSPSTLSASLGDRVIITCQSSQSVYGNIWMAWYQQKSGKAPKLLIYQASKLASGVPSRFSGSGSGAEFSLTISSLQPDDFATYYCQGNFNTGDRYAFGQGTKLTVLGGGGGSGGGGSGGGGSGGGGSEVQLVESGGGLVQPGGSLRLSCTASGFTISRSYWICWVRQAPGKGLEWVACIYGDNDITPLYANWAKGRFPVSTDTSKNTVYLQMNSLRAEDTAVYYCARLGYADYAYDLWGQGTLVTVSS

Tests used:
[1] = biological target: T1, recombinant human VEGF165 (PeproTech EC Ltd.) (human, UniProt P15692-4 27-191); assay: SPR BIAcore T100, hVEGF165 amine-coupled on CM4 chip, scFv as analyte
T1 construct: Amine-coupled to a CM4 sensor chip; also called hVEGF165

[2] = biological target: T2, Human TNFa N-his trimers (human, UniProt P01375 77-233); assay: SPR BIAcore T100, His-tagged human TNF trimers captured on NTA chip, scFv as analyte
T2 construct: Captured at 5 nM on an NTA sensor chip by the N-terminal his-tags; also called His-tagged TNF (produced at ESBATech); not shown: N-terminal his-tag

[3] = biological target: VEGF (as used in the VEGFR competition ELISA); assay: competition ELISA against hVEGR1, EC50 ratio to reference Luc
Sequence of VEGF (as used in the VEGFR competition ELISA) (P15692 whole entry): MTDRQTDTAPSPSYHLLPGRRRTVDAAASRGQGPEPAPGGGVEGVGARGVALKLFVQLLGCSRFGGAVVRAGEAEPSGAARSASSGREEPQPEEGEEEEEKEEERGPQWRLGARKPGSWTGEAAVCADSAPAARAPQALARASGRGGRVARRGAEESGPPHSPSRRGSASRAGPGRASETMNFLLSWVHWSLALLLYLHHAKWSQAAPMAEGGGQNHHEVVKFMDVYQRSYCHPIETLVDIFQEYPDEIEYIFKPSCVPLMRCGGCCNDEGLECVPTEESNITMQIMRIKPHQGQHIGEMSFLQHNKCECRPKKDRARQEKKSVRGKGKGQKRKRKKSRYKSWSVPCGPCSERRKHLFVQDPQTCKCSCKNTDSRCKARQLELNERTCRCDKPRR

T2 sequence (P01375 77-233 limits assumed): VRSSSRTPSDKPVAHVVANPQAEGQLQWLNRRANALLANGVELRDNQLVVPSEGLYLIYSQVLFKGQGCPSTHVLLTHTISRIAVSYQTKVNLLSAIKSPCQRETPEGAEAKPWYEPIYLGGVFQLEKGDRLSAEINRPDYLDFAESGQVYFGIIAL
T1 sequence (P15692 other isoform, or with tags, fused parts or gaps limits assumed): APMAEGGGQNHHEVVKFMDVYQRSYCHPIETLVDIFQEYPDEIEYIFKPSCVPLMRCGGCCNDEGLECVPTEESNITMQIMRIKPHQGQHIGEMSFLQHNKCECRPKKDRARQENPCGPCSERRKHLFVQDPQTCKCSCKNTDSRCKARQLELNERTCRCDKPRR

Row | Binder | Kd [1] [nM] | koff [1] [s⁻¹] | kon [1] [M⁻¹ s⁻¹] | Kd [2] [nM] | Rel. activity hVEGR1 comp. ELISA (EC50Luc[nM]/EC50test[nM]) [3] [ratio]
1 | B1 | 9.21 | 0.0173 | 1.88e+06 |  | 
2 | B2 |  |  |  | 106 | 
3 | B3 |  |  |  | 0.512 | 
4 | B4 | 1.21 | 0.00272 | 2.26e+06 |  | 13
5 | B5 |  |  |  | 58.7 | 
6 | B6 |  |  |  | 56.9 | 
7 | B7 |  |  |  | 3.46 | 
8 | B8 | 4.53 | 0.000755 | 167000 |  | 
9 | B9 | 5.41 | 0.00501 | 927000 |  | 
10 | B10 | 2.68 | 0.00655 | 2.44e+06 |  | 
11 | B11 | 10.6 | 0.00265 | 251000 |  | 
12 | B12 | 1.18 | 0.000601 | 509000 |  | 
13 | B13 |  |  |  | 262 | 
14 | B14 |  |  |  | 2.91 | 
15 | B15 |  |  |  | 5540 | 
16 | B16 |  |  |  | 0.194 | 
17 | B17 |  |  |  | 0.251 | 
18 | B18 |  |  |  | 1.48 | 
19 | B19 | 2.53 | 0.00128 | 505000 |  | 0.7
20 | B20 |  |  |  | 0.0286 | 
